Here are results for 13 molecules from US11608374 (dated 2023).

In experiment [1] the target is T1, human sclerostin (human).
T1 chain: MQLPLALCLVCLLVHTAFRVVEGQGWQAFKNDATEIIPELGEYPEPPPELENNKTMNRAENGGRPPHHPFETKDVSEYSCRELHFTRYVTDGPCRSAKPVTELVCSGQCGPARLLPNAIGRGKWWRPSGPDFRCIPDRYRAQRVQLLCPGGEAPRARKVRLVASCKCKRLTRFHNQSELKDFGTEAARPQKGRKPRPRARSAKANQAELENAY
Kind of experiment: SPR, pH 7.4. On the technique in general: SPR reads the build-up and loss of mass on a sensor chip optically.

In experiment [2] the target is T2, cynomolgus sclerostin (cynomolgus monkey).
T2 chain: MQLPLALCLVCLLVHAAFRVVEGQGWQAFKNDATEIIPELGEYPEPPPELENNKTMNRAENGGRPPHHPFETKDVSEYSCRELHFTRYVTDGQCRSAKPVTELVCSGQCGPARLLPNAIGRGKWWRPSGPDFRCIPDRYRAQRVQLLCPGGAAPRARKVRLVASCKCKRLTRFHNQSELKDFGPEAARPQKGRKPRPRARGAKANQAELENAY
The experiment is described as follows: SPR, pH 7.4.

Experiment [3] concerns the target T3, mouse sclerostin (mouse).
T3 chain: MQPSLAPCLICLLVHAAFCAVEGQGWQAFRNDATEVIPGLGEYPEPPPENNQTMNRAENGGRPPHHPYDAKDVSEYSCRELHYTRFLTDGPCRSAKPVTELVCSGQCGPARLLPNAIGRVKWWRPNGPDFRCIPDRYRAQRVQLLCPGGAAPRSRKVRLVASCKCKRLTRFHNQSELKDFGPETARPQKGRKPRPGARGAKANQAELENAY
The experiment is described as follows: SPR, pH 7.4 to 5.8, 37C.

The target of experiment [4] is T3, mouse sclerostin. The experiment is described as follows: SPR, pH 7.4, 37C.
The target in experiment [5] is T4, rat sclerostin (rat).
T4 chain: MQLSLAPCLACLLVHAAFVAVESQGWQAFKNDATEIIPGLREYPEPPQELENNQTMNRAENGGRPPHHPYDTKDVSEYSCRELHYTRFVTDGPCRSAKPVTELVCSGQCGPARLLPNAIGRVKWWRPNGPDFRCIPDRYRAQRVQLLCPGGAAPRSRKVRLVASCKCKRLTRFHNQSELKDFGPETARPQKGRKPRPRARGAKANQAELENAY
The experiment is described as follows: SPR, pH 7.4, 37C.

Experiment [6] has as its target T4, rat sclerostin. The experiment is described as follows: SPR, pH 5.8, 37C.
Experiment [7] addresses T2, cynomolgus sclerostin. Kind of experiment: SPR, pH 7.4 to 5.8.
The target of experiment [8] is T1, human sclerostin. Kind of experiment: SPR, pH 7.4 to 5.8.
In experiment [9] the target is T3, mouse sclerostin. Kind of experiment: SPR, pH 5.8, 37C.

B1: amH848/abL152 (antibody, V domains shown)
VH: EVQLVQSGAEVKKPGASVKVSCKASGYTFTSYNMHWVRQAPGKGLEWMGEIMPHSGRYGLKQKFKGRVTMTRDTSISTAYMELSRLRSDDTAVYYCARLEYSEIYDDWYFDVWGQGTTVTVSS
VL: DIQMTQSPSSLSASVGDRVTITCRASEGIHDALAWYQQKPGKAPKLLIYWASTLESGVPSRFSGSGSGTDFTLTISSLQPEDFATYYCQQGDTLPYTFGGGTKVEIK
As a reminder, the koff is the first-order rate constant of dissociation. Lower therefore signals slow dissociation. B1: the values for the koff with human sclerostin [1] and in the experiment with cynomolgus sclerostin [2] were 0.00946 s⁻¹ and 0.00854 s⁻¹, respectively.

B2: mabA_pH4 (antibody, V domains shown)
VH: EVQLVQSGAEVKKPGASVKVSCKASGYTFTDYNMHWVRQAPGQGLEWMGEINPHSGHAGYNQKFKGRVTMTTDTSTSTAYMELRSLRSDDTAVYYCARLHYDDIHDDWYFDVWGQGTTVTVSS
VL: DIQMTQSPSSLSASVGDRVTITCRASHDIHNYLNWYQQKPGKAPKLLIYYTSRLLSGVPSRFSGSGSGTDFTLTISSLQPEDFATYYCQQGDTLPYTFGGGTKVEIK
One may read the Kd as a measure of binding affinity in units of concentration. Low readings indicate higher affinity, high ones lower affinity. Regarding B2, the koff with mouse sclerostin [3] turned out to be 0.0418 s⁻¹. In addition, the Kd with mouse sclerostin [4] was 1.73 nM.

B3: mabA_NpH3 (antibody, V domains shown)
VH: EVQLVQSGAEVKKPGASVKVSCKASGYTFTDYNMHWVRQAPGQGLEWMGEINPNSGGAGYNQKFKGRVTMTTDTSTSTAYMELRSLRSDDTAVYYCARLGYDDIYDDWYFDVWGQGTTVTVSS
VL: DIQMTQSPSSLSASVGDRVTITCRASQDISNYLNWYQQKPGKAPKLLIYYHSRLLSGVPSRFSGSGSGTDFTLTISSLQPEDFATYYCHQGDTLPYTFGGGTKVEIK
For B3, the Kd was found to be 0.0426 nM with rat sclerostin [5] and 0.0454 nM with rat sclerostin [6].

B4: mabB_pH1 (antibody, V domains shown)
VH: QVQLVQSGAEVKKPGASVKVSCKVSGFPIKHHFQHWVRQAPGKGLEWMGWSDPEIGDTEYASKFQGRVTMTEDTSTDTAYMELSSLRSEDTAVYYCATGDTTYKFDFWGQGTTVTVSS
VL: DIQMTQSPSSLSASVGDRVTITCKASQDVHTAVAWYQQKPGKAPKLLIYWASTRWTGVPSRFSGSGSGTDFTLTISSLQPEDFATYYCQQYHDYPWTFGGGTKVEIK
On to B4, for which the koff with mouse sclerostin [3] amounted to 0.0206 s⁻¹. The molecule also had a Kd with mouse sclerostin [4] of 0.138 nM.

B5: mabB//mabA_pH1 (antibody)
chain 1: QVQLVQSGAEVKKPGASVKVSCKVSGFPIKDTFQHWVRQAPGKGLEWMGWSDPEIGDTEYASKFQGRVTMTEDTSTDTAYMELSSLRSEDTAVYYCATGDTTYKFDFWGQGTTVTVSS
chain 2: DIQMTQSPSSLSASVGDRVTITCKASQDVHTAVAWYQQKPGKAPKLLIYWASTRWTGVPSRFSGSGSGTDFTLTISSLQPEDFATYYCQQYSDYPWTFGGGTKVEIK
chain 3: EVQLVQSGAEVKKPGASVKVSCKASGYTFTDYNMHWVRQAPGQGLEWMGEINPNSGHAGYNQKFKGRVTMTTDTSTSTAYMELRSLRSDDTAVYYCARLHYDDIYDDWYFDVWGQGTTVTVSS
chain 4: DIQMTQSPSSLSASVGDRVTITCRASHDISNYLNWYQQKPGKAPKLLIYYTSRLLSGVPSRFSGSGSGTDFTLTISSLQPEDFATYYCQQGDTLPYTFGGGTKVEIK
In turn, B5 returned a koff in the experiment with mouse sclerostin [3] of 0.0347 s⁻¹.

B6: mabB_pH4 (antibody, V domains shown)
VH: QVQLVQSGAEVKKPGASVKVSCKVSGFPIKHHFQHWVRQAPGKGLEWMGWSDPEIGDTEYASKFQGRVTMTEDTSTDTAYMELSSLRSEDTAVYYCATGDTTYKFDFWGQGTTVTVSS
VL: DIQMTQSPSSLSASVGDRVTITCKASQDVHTAVAWYQQKPGKAPKLLIYWASTRWTGVPSRFSGSGSGTDFTLTISSLQPEDFATYYCQQYSDYHWTFGGGTKVEIK
In the experiment with mouse sclerostin [4], B6 gave an equilibrium dissociation constant (Kd) of 0.782 nM.

B7: mabB//mabA_pH2 (antibody)
chain 1: QVQLVQSGAEVKKPGASVKVSCKVSGFPIKDTFQHWVRQAPGKGLEWMGWSDPEIGDTEYASKFQGRVTMTEDTSTDTAYMELSSLRSEDTAVYYCATGDTTYKFDFWGQGTTVTVSS
chain 2: DIQMTQSPSSLSASVGDRVTITCKASQDVHTAVAWYQQKPGKAPKLLIYWASTRWTGVPSRFSGSGSGTDFTLTISSLQPEDFATYYCQQYSDYPWTFGGGTKVEIK
chain 3: EVQLVQSGAEVKKPGASVKVSCKASGYTFTDYNMHWVRQAPGQGLEWMGEINPNSGHAGYNQKFKGRVTMTTDTSTSTAYMELRSLRSDDTAVYYCARLHYDHIYDDWYFDVWGQGTTVTVSS
chain 4: DIQMTQSPSSLSASVGDRVTITCRASHDISNYLNWYQQKPGKAPKLLIYYTSRLLSGVPSRFSGSGSGTDFTLTISSLQPEDFATYYCQQGDTLPYTFGGGTKVEIK
B7 returned a koff in the experiment with mouse sclerostin [3] of 0.0186 s⁻¹.

B8: amH852/bsH656/abL152 (antibody)
chain 1: EVQLVQSGAEVKKPGASVKVSCKASGYTFTDYNMHWVRQAPGKGLEWMGEIMPHSGRYGLKQKFKGRVTMTTDTSTSTAYMELRSLRSDDTAVYYCARLEYSEIYDDWYFDVWGQGTTVTVSS
chain 2: DIQMTQSPSSLSASVGDRVTITCRASEGIHDALAWYQQKPGKAPKLLIYWASTLESGVPSRFSGSGSGTDFTLTISSLQPEDFATYYCQQGDTLPYTFGGGTKVEIK
chain 3: QVQLVQSGAEVKKPGASVKVSCKVSGYTLTHTFMHWVRQAPGKGLEWMGWSDPEIGDTEYASKFQGRVTMTEDTSTDTAYMELSSLRSEDTAVYYCATGDTTYKFDYWGQGTLVTVSS
chain 4: DIQMTQSPSSLSASVGDRVTITCRASEGIHDALAWYQQKPGKAPKLLIYWASTLESGVPSRFSGSGSGTDFTLTISSLQPEDFATYYCQQGDTLPYTFGGGTKVEIK
For B8, the koff with human sclerostin [1] worked out at 0.000419 s⁻¹; in the experiment with cynomolgus sclerostin [7] it was 0.116 s⁻¹; in the experiment with human sclerostin [8], 0.0593 s⁻¹; with cynomolgus sclerostin [2] it was 0.000405 s⁻¹.

B9: mabB_pH5 (antibody, V domains shown)
VH: QVQLVQSGAEVKKPGASVKVSCKVSGFPIKHHFQHWVRQAPGKGLEWMGWSDPEIGDTEYASKFQGRVTMTEDTSTDTAYMELSSLRSEDTAVYYCATGHTTYKFDFWGQGTTVTVSS
VL: DIQMTQSPSSLSASVGDRVTITCKASQDVHTAVAWYQQKPGKAPKLLIYWASTRWTGVPSRFSGSGSGTDFTLTISSLQPEDFATYYCQQYSDYHWTFGGGTKVEIK
In the experiment with mouse sclerostin [4], B9 had a Kd of 0.589 nM.

B10: mabB (antibody, V domains shown)
VH: QVQLVQSGAEVKKPGASVKVSCKVSGFPIKDTFQHWVRQAPGKGLEWMGWSDPEIGDTEYASKFQGRVTMTEDTSTDTAYMELSSLRSEDTAVYYCATGDTTYKFDFWGQGTTVTVSS
VL: DIQMTQSPSSLSASVGDRVTITCKASQDVHTAVAWYQQKPGKAPKLLIYWASTRWTGVPSRFSGSGSGTDFTLTISSLQPEDFATYYCQQYSDYPWTFGGGTKVEIK
Turning to B10, the Kd with mouse sclerostin [9] turned out to be 0.26 nM; with mouse sclerostin [4], 0.0141 nM.

B11: bsH656/abL152 (antibody, V domains shown)
VH: QVQLVQSGAEVKKPGASVKVSCKVSGYTLTHTFMHWVRQAPGKGLEWMGWSDPEIGDTEYASKFQGRVTMTEDTSTDTAYMELSSLRSEDTAVYYCATGDTTYKFDYWGQGTLVTVSS
VL: DIQMTQSPSSLSASVGDRVTITCRASEGIHDALAWYQQKPGKAPKLLIYWASTLESGVPSRFSGSGSGTDFTLTISSLQPEDFATYYCQQGDTLPYTFGGGTKVEIK
For B11, the koff turned out to be 0.0104 s⁻¹ in the experiment with human sclerostin [1] and 0.0108 s⁻¹ in the experiment with cynomolgus sclerostin [2].

B12: bsH638/abL152 (antibody, V domains shown)
VH: QVQLVQSGAEVKKPGASVKVSCKVSGYTLTHTFMHWVRQAPGKGLEWMGWSDPEIGDHEYASKFQGRVTMTEDTSTDTAYMELSSLRSEDTAVYYCATGDTTYKFDYWGQGTLVTVSS
VL: DIQMTQSPSSLSASVGDRVTITCRASEGIHDALAWYQQKPGKAPKLLIYWASTLESGVPSRFSGSGSGTDFTLTISSLQPEDFATYYCQQGDTLPYTFGGGTKVEIK
For the molecule B12, the koff with human sclerostin [1] turned out to be 0.0093 s⁻¹; in the experiment with cynomolgus sclerostin [2] it was 0.0107 s⁻¹.

B13: mabB//mabA_pH3 (antibody)
chain 1: QVQLVQSGAEVKKPGASVKVSCKVSGFPIKDTFQHWVRQAPGKGLEWMGWSDPEIGDTEYASKFQGRVTMTEDTSTDTAYMELSSLRSEDTAVYYCATGDTTYKFDFWGQGTTVTVSS
chain 2: DIQMTQSPSSLSASVGDRVTITCKASQDVHTAVAWYQQKPGKAPKLLIYWASTRWTGVPSRFSGSGSGTDFTLTISSLQPEDFATYYCQQYSDYPWTFGGGTKVEIK
chain 3: EVQLVQSGAEVKKPGASVKVSCKASGYTFTDYNMHWVRQAPGQGLEWMGEINPHSGHAGYNQKFKGRVTMTTDTSTSTAYMELRSLRSDDTAVYYCARLHYDDIHDDWYFDVWGQGTTVTVSS
chain 4: DIQMTQSPSSLSASVGDRVTITCRASHDISNYLNWYQQKPGKAPKLLIYYTSRLLSGVPSRFSGSGSGTDFTLTISSLQPEDFATYYCQQGDTLPYTFGGGTKVEIK
Regarding B13, the koff with mouse sclerostin [3] amounted to 0.0516 s⁻¹.
